In patent publication US20060251733A1:

Target: FcγR (receptor for the Fc portion of immunoglobulin molecule) on bone marrow derived macrophages (mouse)
Experiment: cell-based or functional assay

IgG-opsonized erythrocytes (E-IgG): sheep erythrocytes (SRBC) opsonized with rabbit IgG antibody to SRBC
IL-10 production by BMMφ (ELISA of supernatants), LPS + E-IgG: 10 ng/mL
IL-10 production by BMMφ (ELISA of supernatants), LPS + E-IgG against LPS alone: > 5 fold
